# According to US6903077, “Methods and products for delivering nucleic acids” (University of Vermont and State Agricultural College):
# T1: GST-Z2
# T1 sequence: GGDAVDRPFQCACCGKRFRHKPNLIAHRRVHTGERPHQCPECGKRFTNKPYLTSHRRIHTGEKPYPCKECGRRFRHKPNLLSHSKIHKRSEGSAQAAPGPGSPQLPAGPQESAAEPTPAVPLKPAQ
# T2: GST-Z1
# T2 sequence: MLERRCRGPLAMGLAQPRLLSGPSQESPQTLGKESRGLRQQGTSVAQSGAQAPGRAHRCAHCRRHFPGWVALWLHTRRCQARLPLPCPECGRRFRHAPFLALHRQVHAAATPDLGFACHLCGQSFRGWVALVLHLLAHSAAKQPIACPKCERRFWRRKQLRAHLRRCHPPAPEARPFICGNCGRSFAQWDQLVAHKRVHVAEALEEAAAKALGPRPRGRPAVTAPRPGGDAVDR
# T3: GST-Z2-P123
# T3 sequence: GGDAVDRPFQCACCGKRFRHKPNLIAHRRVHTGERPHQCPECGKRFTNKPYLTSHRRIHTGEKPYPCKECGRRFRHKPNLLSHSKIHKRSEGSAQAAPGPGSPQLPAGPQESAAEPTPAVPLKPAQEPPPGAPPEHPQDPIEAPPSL
# T4: GST-Z3
# T4 sequence: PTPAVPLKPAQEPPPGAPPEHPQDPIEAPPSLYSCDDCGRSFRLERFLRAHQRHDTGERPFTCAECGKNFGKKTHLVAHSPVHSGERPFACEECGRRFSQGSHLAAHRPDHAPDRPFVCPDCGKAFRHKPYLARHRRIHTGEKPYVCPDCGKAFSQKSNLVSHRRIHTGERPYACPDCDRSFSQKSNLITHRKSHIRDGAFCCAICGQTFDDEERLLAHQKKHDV
# T5: GST-Z1 (RIP60 zinc fingers 1-5) (Homo sapiens, UniProt Q9BWE0 SEQ:1-234)
# T5 chain: T2 sequence
# T6: GST-Z2 (RIP60 zinc fingers 6-8 plus part of PRR, GST-Z2-P12) (Homo sapiens, UniProt Q9BWE0 SEQ:1-126)
# T6 sequence: T1 sequence
# T7: GST-Z12 (Homo sapiens, UniProt Q9BWE0 SEQ:1-349)
# T7 chain: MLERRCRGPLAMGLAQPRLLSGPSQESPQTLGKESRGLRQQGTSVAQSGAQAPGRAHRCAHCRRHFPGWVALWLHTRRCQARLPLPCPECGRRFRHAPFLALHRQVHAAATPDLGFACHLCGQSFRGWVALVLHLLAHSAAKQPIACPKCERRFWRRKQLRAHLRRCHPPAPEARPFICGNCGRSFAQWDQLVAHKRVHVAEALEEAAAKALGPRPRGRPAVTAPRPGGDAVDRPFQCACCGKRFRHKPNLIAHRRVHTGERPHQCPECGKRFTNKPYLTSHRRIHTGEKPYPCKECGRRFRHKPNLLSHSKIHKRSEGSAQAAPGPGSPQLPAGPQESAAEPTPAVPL
# T8: GST-Z2-P1 (Homo sapiens, UniProt Q9BWE0 SEQ:225-337)
# T8 sequence: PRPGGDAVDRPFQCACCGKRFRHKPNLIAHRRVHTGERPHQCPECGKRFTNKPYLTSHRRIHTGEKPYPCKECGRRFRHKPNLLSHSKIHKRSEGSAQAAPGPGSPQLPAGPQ
# T9: GST-Z2-P123 (Homo sapiens, UniProt Q9BWE0 SEQ:1-147)
# T9 sequence: T3 sequence
# B1: IBF (OCH13/OCH14) (dsDNA)
# DNA 1: GATCCGGGAAGGCGGGCGCTGGGGGCGCTGCGGCGCTGCGCTCCACCT
# DNA 2: GATCTAGGTGGAGCGCAGCGCCGCAGCGCCCCCAGCGCCCGCCTTCCCG
# B2: DSR (OCH7/OCH8) (dsDNA)
# DNA 1: GATCTTTTATTATTATTATTAGTTCG
# DNA 2: GATCCGAACTAATAATAATAATAAAA
# B3: Py-AT (OCH37/OCH38) (dsDNA)
# DNA 1: CTGTTTTTTTTAGTATTAAGC
# DNA 2: GCTTAATACTAAAAAAAACAG
# B4: USR (OCH39/OCH40) (dsDNA)
# DNA 1: GATCTTAACAGTAATAATAAATATCT
# DNA 2: GATCAGATATTTATTATTACTGTTAA
# B5: GST-Z2 (other)
# chain: T1 sequence
# notes: also called GST-Z2(P12); GST-Z2-P12; not shown: glutathione-S-transferase (GST) purification tag, 26 kD, encoded by pGEX-2T (Pharmacia Biotech), at the amino terminus
# Assays:
# GST-Z2 = system: T1, GST-Z2
# GST-Z1 = system: T2, GST-Z1
# GST-Z2-P123 [1] = system: T3, GST-Z2-P123
# GST-Z3 = system: T4, GST-Z3
# [2] = biological target: T5, GST-Z1 (RIP60 zinc fingers 1-5); assay: competition; not significantly competing; details: tags: GST N-terminal
# Protocol: (§1) Binding reactions were incubated for 20 minutes at 37° C., 15 min on ice, and then resolved on 6% native polyacrylamide gels in 0.25×TBE buffer. Gels were dried, exposed to Kodak XAR film at −80° C., and signals were detected by autoradiography. Competition binding reactions were assembled as described above with the addition of 0.5, 5, or 50 pmole of unlabeled double-stranded competitor DNA to the reactions prior to the addition of protein. For time course competition assays, 60 ul binding reactions were assembled and incubated as above. Following the incubation step on ice, 50 pmole of unlabeled DSR competitor DNA was added to the binding reactions and samples where removed at the indicated time points, loaded on a 6% native PAGE gel, and resolved by electrophoresis at 25V until all samples were loaded. After the final sample was loaded, the voltage was increased to 100V and samples were resolved by electrophoresis for an additional 1.5 hours. Signals on the dried gels were quantified on a phosphoimager (BioRad model GS 525). A value for % probe bound was calculated as a ratio of protein-bound probe to total probe (bound and unbound probe) per sample and values were plotted against time.
# (§2) Binding of the GST-Z2 to the DSR probe was stable in the presence of 1000-fold excess of IBF, SV-AT, or Py-AT competitors, but was competed with 100-fold excess of unlabeled DSR DNA. […]
# [3] = biological target: T6, GST-Z2 (RIP60 zinc fingers 6-8 plus …); assay: competition; no competition at 1000-fold excess; details: tags: GST N-terminal
# Protocol: as §1, §2
# GST-Z12 [4] = biological target: T7, GST-Z12; assay: EMSA; specific; details: tags: GST N-terminal; label: 32P; 5' overhangs
# Protocol: DSR (50 pmole) was labeled by Klenow fill-in reaction of 5' overhangs in the presence of [α-^32P]-dATP. Other probes were end-labeled with polynucleotide kinase and [γ-^32P]. Binding reactions (30 ul) contained 0.05 pmole labeled DSR probe, 40 mM KCl, 10 mM HEPES (pH 8.0), 4% Ficoll, 33 ng/ul poly dIdC, 1 mM DTT, 16.7 uM ZnCl_2, and 0.5–10 ug of protein. Binding reactions were incubated for 20 minutes at 37° C., 15 min on ice, and then resolved on 6% native polyacrylamide gels in 0.25×TBE buffer. Gels were dried, exposed to Kodak XAR film at −80° C., and signals were detected by autoradiography. Competition binding reactions were assembled as described above with the addition of 0.5, 5, or 50 pmole of unlabeled double-stranded competitor DNA to the reactions prior to the addition of protein. For time course competition assays, 60 ul binding reactions were assembled and incubated as above. […] Signals on the dried gels were quantified on a phosphoimager (BioRad model GS 525). A value for % probe bound was calculated as a ratio of protein-bound probe to total probe (bound and unbound probe) per sample and values were plotted against time. […]
# GST-Z2-P1 = biological target: T8, GST-Z2-P1; assay: EMSA; no multimers; details: tags: GST N-terminal; label: 32P; 5' overhangs
# GST-Z2-P123 [5] = biological target: T9, GST-Z2-P123; assay: EMSA; multimers; details: tags: GST N-terminal; label: 32P; 5' overhangs
# [6] = biological target: T6, GST-Z2 (RIP60 zinc fingers 6-8 plus …); assay: EMSA; competed by 100-fold DSR; more stable than GST-Z1; details: tags: GST N-terminal; label: 32P; 5' overhangs
# Protocol: (§3) A value for % probe bound was calculated as a ratio of protein-bound probe to total probe (bound and unbound probe) per sample and values were plotted against time.
# (§4) Binding of the GST-Z2 to the DSR probe was stable in the presence of 1000-fold excess of IBF, SV-AT, or Py-AT competitors, but was competed with 100-fold excess of unlabeled DSR DNA. […] In contrast, binding of GST-Z3 to the DSR probe was eliminated by a 1000-fold excess of all unlabelled competitors tested. […] In a like manner, the USR was also able to compete for binding of these proteins to the DSR.
# (§5) To ascertain if Z1 and Z2 show any differences in binding activity, the stability of Z1 and Z2 complexes with the DSR was examined in competition gel shift assays. Identical amounts of GST-Z1 and GST-Z2 were incubated with ^32P-labeled probe for 20 min, and then a 1000-fold molar excess of unlabeled competitor DSR was added. Samples were removed from the binding reactions at various times thereafter and loaded directly onto non-denaturing gels running at low voltage. After all the samples were loaded, the voltage was increased to 100V for 1 hr. After drying the gels, the signals in the shifted complexes were quantified by phosphoimaging.
# [7] = biological target: T5, GST-Z1 (RIP60 zinc fingers 1-5); assay: EMSA; competed by 100-fold DSR; less stable than GST-Z2; details: tags: GST N-terminal; label: 32P; 5' overhangs
# Protocol: as §3, §4, §5
# [8] = biological target: T5, GST-Z1 (RIP60 zinc fingers 1-5); assay: EMSA; footprinting and gel shift; unstable binding; details: tags: GST N-terminal
# [9] = biological target: T6, GST-Z2 (RIP60 zinc fingers 6-8 plus …); assay: competition; USR competes for binding to DSR; details: tags: GST N-terminal
# Protocol: as §1, §2
# GST-Z12 [10] = biological target: T7, GST-Z12; assay: competition; USR competes; details: tags: GST N-terminal
# Protocol: as §1, §2
# [11] = biological target: the molecule itself; assay: Gel shift Multimers, self-association on DNA
# Protocol: as §1, with “Binding reactions (30 ul) contained 0.05 pmole labeled DSR probe, 40 mM KCl, 10 mM HEPES (pH 8.0), 4% Ficoll, 33 ng/ul poly dIdC, 1 mM DTT, 16.7 uM ZnCl_2, and 0.5–10 ug of protein. Binding” for “Binding”, “time. […]” for “time.”
molecule,measurement,setting,value
casein kinase II,"phosphorylation in vitro (32P-ATP, SDS gel, autoradiography)",GST-Z2,"Only the GST-Z2 polypeptide, which contains the casein kinase II phosphorylation domain was phosphorylated"
same,phosphorylation in vitro with and without DNA,GST-Z2,"GST-Z2 polypeptide was phosphorylated by casein kinase II in the absence of DNA. However, the extent of phosphorylation increased in the presence of the double stranded DRS oligo, the linearized plasmid pCH127 and the supercoiled pCH127"
same,"phosphorylation in vitro (32P-ATP, SDS gel, autoradiography)",GST-Z1,neither GST-Z1 nor GST-Z3 were phosphorylated to any great degree
same,"phosphorylation in vitro (32P-ATP, SDS gel, autoradiography)",GST-Z2-P123 [1],Both GST-Z2 and GST-Z2P123 were phosphorylated
same,"phosphorylation in vitro (32P-ATP, SDS gel, autoradiography)",GST-Z3,neither GST-Z1 nor GST-Z3 were phosphorylated to any great degree
B1,binding result,[2],no binding
same,binding result,[3],no binding
B2,binding result,GST-Z12 [4],binds
same,binding result,GST-Z2-P1,binds
same,binding result,GST-Z2-P123 [5],binds
same,binding result,[6],binds
same,binding result,[7],binds
B3,binding result,[3],no binding
B4,binding result,[8],binds
same,binding result,[9],binds
same,binding result,GST-Z12 [10],binds
B5,binding result,[11],binds
